Data taken from paper PMC7971329 (Oncoimmunology, 2021).

Target: human interleukin-2 (human, UniProt P60568)
Experiment: SEC

Sequence of human interleukin-2 (P60568 21-153): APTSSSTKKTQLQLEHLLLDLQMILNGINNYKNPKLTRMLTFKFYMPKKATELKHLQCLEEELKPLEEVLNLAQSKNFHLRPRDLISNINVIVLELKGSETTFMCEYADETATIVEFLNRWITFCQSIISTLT

binding result: binds
B1: TCB2-Fab (Fab, V domains shown)
VH: EVQLQQSGAELARPGASVKLSCKASGYTFTTYWIQWVKQRPGQGLEWIGAIYPGDGDTRYIQNFKGKATLTADKSSSTAYMQLSSLASEDSAVYYCARSLATRGFYAMDYWGQGTSVTVSS
VL: DIVMTQSPASLSMAIGEKVTIRCITSTDIDDDMNWYQQKPGEPPKLLISEGNTLRPGVPSRFSSSGYGTDFVFTIENMLSEDVADYYCLQSDNLPYTFGGGTKLEIK
